In US20210380703A1:

Molecular target: Human Fc (human)
Assay: ELISA, negative control

optical density [OD]	Binder
0.674	370_A12 (antibody, V domains shown) VH: EVQLLESGGGLVQPGGSLRLSCAASGFTFSSYGMNWVRQAPGKGLEWVAGINYNGGYTSYADSVKGRFTISRDNSKNTLYLQMNSLRAEDTAVYYCARSANWHDTALDYWGQGTLVTVSS VL: DIQMTQSPSSLSASVGDRVTITCRASQSILTYLNWYQQKPGKAPKLLIYAATSLASGVPSRFSGSGSGTDFTLTISSLQPEDFATYYCQQSYDSPLTFGGGTKVEIK
0.403	370_C01 (antibody, V domains shown) VH: EVQLLESGGGLVQPGGSLRLSCAASGFTFDSYSMNWVRQAPGKGLEWVSGINYNSGYTGYADSVKGRFTISRDNSKNTLYLQMNSLRAEDTAVYYCARSANWHDTALDYWGQGTLVTVSS VL: DIQMTQSPSSLSASVGDRVTITCRASQSILTYLNWYQQKPGKAPKLVIYAATSLASGVPSRFSGSGSGTDFTLTISSLQPEDFATYYCQQSYDTPLTFGGGTKVEIK
0.346	370_C05 (antibody, V domains shown) VH: EVQLLESGGGLVQPGGSLRLSCAASGFTFSSYSMNWVRQAPGKGLEWVAGINYNSGYTGYADSVKGRFTISRDNSKNTLYLQMNSLRAEDTAVYYCARSANWHDTALDYWGQGTLVTVSS VL: DIQMTQSPSSLSASVGDRVTITCRASQSILSYVNWYQQKPGKAPKLVIYAATSRASGVPSRFSGSGSGTDFTLTISSLQPEDFATYYCQQSYNSPLTFGGGTKVEIK
0.381	370_C08 (antibody, V domains shown) VH: EVQLLESGGGLVQPGGSLRLSCAASGFTFSSYGMNWVRQAPGKGLEWVAGINYNGGYKGYADSVKGRFTISRDNSKNTLYLQMNSLRAEDTAVYYCARSANWHDTALDYWGQGTLVTVSS VL: DIQMTQSPSSLSASVGDRVTITCRASQSISNYLNWYQQKPGKAPKLLIYAVTSRASGVPSRFSGSGSGTDFTLTISSLQPEDFATYYCQQSYDSPLTFGGGTKVEIK
0.371	370_D04 (antibody, V domains shown) VH: EVQLLESGGGLVQPGGSLRLSCAASGFTFDSYSMNWVRQAPGKGLEWVANINYNSGYKGYADSVKGRFTISRDNSKNTLYLQMNSLRAEDTAVYYCARSANWHDTALDYWGQGTLVTVSS VL: DIQMTQSPSSLSASVGDRVTITCRASQSILTYLNWYQQKPGKAPKLVIYAATSRASGVPSRFSGSGSGTDFTLTISSLQPEDFATYYCQQSYDNPLTFGGGTKVEIK
0.34	370_D11 (antibody, V domains shown) VH: EVQLLESGGGLVQPGGSLRLSCAASGFTFDSYSMNWVRQAPGKGLEWVSGINYNGGYTGYADSVKGRFTISRDNSKNTLYLQMNSLRAEDTAVYYCARSANWHDTALDYWGQGTLVTVSS VL: DIQMTQSPSSLSASVGDRVTITCRASQSIVSYLNWYQQKPGKAPKLLIYAATSRASGVPSRFSGSGSGTDFTLTISSLQPEDFATYYCQQSYDTPLTFGGGTKVEIK
0.361	370_E03 (antibody, V domains shown) VH: EVQLLESGGGLVQPGGSLRLSCAASGFTFSSYGMNWVRQAPGKGLEWVSSINYNGGYKGYADSVKGRFTISRDNSKNTLYLQMNSLRAEDTAVYYCARSANWHDTALDYWGQGTLVTVSS VL: DIQMTQSPSSLSASVGDRVTITCRASQSILTYLNWYQQKPGKAPKLVIYYASNRASGVPSRFSGSGSGTDFTLTISSLQPEDFATYYCQQSYDSPLTFGGGTKVEIK
0.375	370_E06 (antibody, V domains shown) VH: EVQLLESGGGLVQPGGSLRLSCAASGFTFSSYGMNWVRQAPGKGLEWVSGINYNSGYKSYADSVKGRFTISRDNSKNTLYLQMNSLRAEDTAVYYCARSANWHDTALDYWGQGTLVTVSS VL: DIQMTQSPSSLSASVGDRVTITCRASQSILSYLNWYQQKPGKAPKLVIYATTSLASGVPSRFSGSGSGTDFTLTISSLQPEDFATYYCQQSYDTPLTFGGGTKVEIK
0.338	370_E09 (antibody, V domains shown) VH: EVQLLESGGGLVQPGGSLRLSCAASGFTFDDSSMHWVRQAPGKGLEWVSNINYNGGYTGYADSVKGRFTISRDNSKNTLYLQMNSLRAEDTAVYYCAKSANWHDTALDYWGQGTLVTVSS VL: DIQMTQSPSSLSASVGDRVTITCRASQSILSYVNWYQQKPGKAPKLVIYAATSRASGVPSRFSGSGSGTDFTLTISSLQPEDFATYYCQQSYELPLTFGGGTKVEIK
0.406	370_F05 (antibody, V domains shown) VH: EVQLLESGGGLVQPGGSLRLSCAASGFTFSSYGMNWVRQAPGKGLEWVSGINYNSGYTSYADSVKGRFTISRDNSKNTLYLQMNSLRAEDTAVYYCARSANWHDTALDYWGQGTLVTVSS VL: DIQMTQSPSSLSASVGDRVTITCRASQSIVSYVNWYQQKPGKAPKLVIYAATSRASGVPSRFSGSGSGTDFTLTISSLQPEDFATYYCQQSYETPLTFGGGTKVEIK
0.384	370_F07 (antibody, V domains shown) VH: EVQLLESGGGLVQPGGSLRLSCAASGFTFDSYSMNWVRQAPGKGLEWVSNINYNGGYKGYADSVKGRFTISRDNSKNTLYLQMNSLRAEDTAVYYCARSANWHDTALDYWGQGTLVTVSS VL: DIQMTQSPSSLSASVGDRVTITCRASQSILSYLNWYQQKPGKAPKLLIYAATSRASGVPSRFSGSGSGTDFTLTISSLQPEDFATYYCQQSYNLPLTFGGGTKVEIK
0.441	370_F10 (antibody, V domains shown) VH: EVQLLESGGGLVQPGGSLRLSCAASGFTFSSYSMNWVRQAPGKGLEWVAGINYNGGYTSYADSVKGRFTISRDNSKNTLYLQMNSLRAEDTAVYYCARSANWHDTALDYWGQGTLVTVSS VL: DIQMTQSPSSLSASVGDRVTITCRASQSIVSYLNWYQQKPGKAPKLVIYAATSRASGVPSRFSGSGSGTDFTLTISSLQPEDFATYYCQQSYNSPLTFGGGTKVEIK
0.388	370_G02 (antibody, V domains shown) VH: EVQLLESGGGLVQPGGSLRLSCAASGFTFSDYSMNWVRQAPGKGLEWVANINYNGGYKGYADSVKGRFTISRDNSKNTLYLQMNSLRAEDTAVYYCARSANWHDTALDYWGQGTLVTVSS VL: DIQMTQSPSSLSASVGDRVTITCRASQSIVSYLNWYQQKPGKAPKLLIYAATSRHSGVPSRFSGSGSGTDFTLTISSLQPEDFATYYCQQSYDSPLTFGGGTKVEIK
0.421	370_G03 (antibody, V domains shown) VH: EVQLLESGGGLVQPGGSLRLSCAASGFTFSSYSMNWVRQAPGKGLEWVANINYNGGYTGYADSVKGRFTISRDNSKNTLYLQMNSLRAEDTAVYYCARSANWHDTALDYWGQGTLVTVSS VL: DIQMTQSPSSLSASVGDRVTITCRASQSILTYVNWYQQKPGKAPKLVIYATTSRASGVPSRFSGSGSGTDFTLTISSLQPEDFATYYCQQSYNNPLTFGGGTKVEIK
0.356	370_G06 (antibody, V domains shown) VH: EVQLLESGGGLVQPGGSLRLSCAASGFTFSDYGMHWVRQAPGKGLEWVSSINYNGGYTSYADSVKGRFTISRDNSKNTLYLQMNSLRAEDTAVYYCARSANWHDTALDYWGQGTLVTVSS VL: DIQMTQSPSSLSASVGDRVTITCRASQSILSYVNWYQQKPGKAPKLVIYAATSRASGVPSRFSGSGSGTDFTLTISSLQPEDFATYYCQQSDNTPLTFGGGTKVEIK
0.393	370_G09 (antibody, V domains shown) VH: EVQLLESGGGLVQPGGSLRLSCAASGFTFSSYGMNWVRQAPGKGLEWVAGINYNGGYKSYADSVKGRFTISRDNSKNTLYLQMNSLRAEDTAVYYCARSANWHDTALDYWGQGTLVTVSS VL: DIQMTQSPSSLSASVGDRVTITCRASQSILSYVNWYQQKPGKAPKLVIYAATSRASGVPSRFSGSGSGTDFTLTISSLQPEDFATYYCQQSYESPLTFGGGTKVEIK
0.315	370_G10 (antibody, V domains shown) VH: EVQLLESGGGLVQPGGSLRLSCAASGFTFSDYGMNWVRQAPGKGLEWVSGINYNSGYTSYADSVKGRFTISRDNSKNTLYLQMNSLRAEDTAVYYCARSANWHDTALDYWGQGTLVTVSS VL: DIQMTQSPSSLSASVGDRVTITCRASQSISSYLNWYQQKPGKAPKLLIYVVNNRASGVPSRFSGSGSGTDFTLTISSLQPEDFATYYCQQSYENPLTFGGGTKVEIK
0.529	370_G11 (antibody, V domains shown) VH: EVQLLESGGGLVQPGGSLRLSCAASGFTFSSYSMNWVRQAPGKGLEWVASINYNSGYTSYADSVKGRFTISRDNSKNTLYLQMNSLRAEDTAVYYCARSANWHDTHLDYWGQGTLVTVSS VL: DIQMTQSPSSLSASVGDRVTITCRASQSIVSYLNWYQQKPGKAPKLVIYAATSRASGVPSRFSGSGSGTDFTLTISSLQPEDFATYYCQQSYSLPLTFGGGTKVEIK
0.436	370_H01 (antibody, V domains shown) VH: EVQLLESGGGLVQPGGSLRLSCAASGFTFSSYSMNWVRQAPGKGLEWVSGINYNSGYKGYADSVKGRFTISRDNSKNTLYLQMNSLRAEDTAVYYCARSANWHDTALDYWGQGTLVTVSS VL: DIQMTQSPSSLSASVGDRVTITCRASQSIISYLNWYQQKPGKAPKLLIYAVTSRASGVPSRFSGSGSGTDFTLTISSLQPEDFATYYCQQSYDTPLTFGGGTKVEIK
0.348	370_H09 (antibody, V domains shown) VH: EVQLLESGGGLVQPGGSLRLSCAASGFTFSSYGMNWVRQAPGKGLEWVANINYNGGYTSYADSVKGRFTISRDNSKNTLYLQMNSLRAEDTAVYYCARSANWHDTALDYWGQGTLVTVSS VL: DIQMTQSPSSLSASVGDRVTITCRASQSIVSYVNWYQQKPGKAPKLLIYAATSRASGVPSRFSGSGSGTDFTLTISSLQPEDFATYYCQQSYDNPLTFGGGTKVEIK
0.354	371_A03 (antibody, V domains shown) VH: EVQLLESGGGLVQPGGSLRLSCAASGFTFSDYGMNWVRQAPGKGLEWVANINYNGGYTGYADSVKGRFTISRDNSKNTLYLQMNSLRAEDTAVYYCARSANWHDTALDYWGQGTLVTVSS VL: DIQMTQSPSSLSASVGDRVTITCRASQSILSYLNWYQQKPGKAPKLVIYATTSRASGVPSRFSGSGSGTDFTLTISSLQPEDFATYYCQQSYESPLTFGGGTKVEIK
0.337	371_A06 (antibody, V domains shown) VH: EVQLLESGGGLVQPGGSLRLSCAASGFTFSSYGMNWVRQAPGKGLEWVAGINYNGGYTSYADSVKGRFTISRDNSKNTLYLQMNSLRAEDTAVYYCARSANWHDTALDYWGQGTLVTVSS VL: DIQMTQSPSSLSASVGDRVTITCRASQSILTYLNWYQQKPGKAPKLVIYAATSRHSGVPSRFSGSGSGTDFTLTISSLQPEDFATYYCQQSYDSPLTFGGGTKVEIK
